T1: FcγRIIb extracellular domain with C-terminal His tag (human, UniProt P31994 43-217)
T1 construct: extracellular domain; also called FcgRIIb; 2b
T1 sequence (looked up): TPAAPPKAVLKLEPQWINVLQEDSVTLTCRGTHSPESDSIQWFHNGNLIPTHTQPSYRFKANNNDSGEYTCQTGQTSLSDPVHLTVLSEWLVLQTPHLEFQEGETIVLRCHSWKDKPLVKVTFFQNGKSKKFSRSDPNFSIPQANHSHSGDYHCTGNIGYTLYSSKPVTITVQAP

B1: GpH7-A5/GpH7-B3 variant G237_02A/GpL16-k0 (antibody, human IgG1, kappa)
heavy 1: not shown
heavy 2: not shown
light: DIVMTQSPLSLPVTPGEPASISCQASESLVHSNRNTYLHWYLQKPGQSPQLLIYKVSNRFSGVPDRFSGSGSGTDFTLKISRVEAEDVGVYYCSQNTHVPPTFGQGTKVEIERTVAAPSVFIFPPSDEQLKSGTASVVCLLNNFYPREAKVQWKVDNALQSGNSQESVTEQDSKDSTYSLSSTLTLSKADYEKHKVYACEVTHQGLSSPVTKSFNRGEC
notes: also called He Ab G237_02A
B2: GpH7-A5/GpH7-B3 variant P238_10E/GpL16-k0 (antibody, human IgG1, kappa)
heavy 1: not shown
heavy 2: not shown
light: B1 light
notes: also called He Ab P238_10E
B3: GpH7-A5/GpH7-B3 variant I336_06M/GpL16-k0 (antibody, human IgG1, kappa)
heavy 1: not shown
heavy 2: not shown
light: B1 light
notes: also called He Ab I336_06M
B4: GpH7-A5/GpH7-B3 variant G237_04F/GpL16-k0 (antibody, human IgG1, kappa)
heavy 1: not shown
heavy 2: not shown
light: B1 light
notes: also called He Ab G237_04F
B5: GpH7-A5/GpH7-B3 variant L235_04F/GpL16-k0 (antibody, human IgG1, kappa)
heavy 1: not shown
heavy 2: not shown
light: B1 light
notes: also called He Ab L235_04F
B6: GpH7-A5/GpH7-B3 variant L234_09D/GpL16-k0 (antibody, human IgG1, kappa)
heavy 1: not shown
heavy 2: not shown
light: B1 light
notes: also called He Ab L234_09D
B7: GpH7-A5/GpH7-B3 variant N325_07I/GpL16-k0 (antibody, human IgG1, kappa)
heavy 1: not shown
heavy 2: not shown
light: B1 light
notes: also called He Ab N325_07I
B8: GpH7-A5/GpH7-B3 variant L328_09D/GpL16-k0 (antibody, human IgG1, kappa)
heavy 1: not shown
heavy 2: not shown
light: B1 light
notes: also called He Ab L328_09D
B9: GpH7-A5/GpH7-B3 variant G237_13S/GpL16-k0 (antibody, human IgG1, kappa)
heavy 1: not shown
heavy 2: not shown
light: B1 light
notes: also called He Ab G237_13S
B10: GpH7-A5/GpH7-B3 variant K326_07I/GpL16-k0 (antibody, human IgG1, kappa)
heavy 1: not shown
heavy 2: not shown
light: B1 light
notes: also called He Ab K326_07I
B11: GpH7-A5/GpH7-B3 variant P238_19Q/GpL16-k0 (antibody, human IgG1, kappa)
heavy 1: not shown
heavy 2: not shown
light: B1 light
notes: also called He Ab P238_19Q
B12: GpH7-A5/GpH7-B3 variant N325_04F/GpL16-k0 (antibody, human IgG1, kappa)
heavy 1: not shown
heavy 2: not shown
light: B1 light
notes: also called He Ab N325_04F
B13: GpH7-A5/GpH7-B3 variant P238_16H/GpL16-k0 (antibody, human IgG1, kappa)
heavy 1: not shown
heavy 2: not shown
light: B1 light
notes: also called He Ab P238_16H
B14: GpH7-A5/GpH7-B3 variant H268_15Y/GpL16-k0 (antibody, human IgG1, kappa)
heavy 1: not shown
heavy 2: not shown
light: B1 light
notes: also called He Ab H268_15Y
B15: GpH7-A5/GpH7-B3 variant A327_18N/GpL16-k0 (antibody, human IgG1, kappa)
heavy 1: not shown
heavy 2: not shown
light: B1 light
notes: also called He Ab A327_18N
B16: GpH7-A5/GpH7-B3 variant N325_13S/GpL16-k0 (antibody, human IgG1, kappa)
heavy 1: not shown
heavy 2: not shown
light: B1 light
notes: also called He Ab N325_13S
B17: GpH7-A5/GpH7-B3 variant A327_07I/GpL16-k0 (antibody, human IgG1, kappa)
heavy 1: not shown
heavy 2: not shown
light: B1 light
notes: also called He Ab A327_07I
B18: GpH7-A5/GpH7-B3 variant A330_05P/GpL16-k0 (antibody, human IgG1, kappa)
heavy 1: not shown
heavy 2: not shown
light: B1 light
notes: also called He Ab A330_05P
B19: GpH7-A5/GpH7-B3 variant L328_02A/GpL16-k0 (antibody, human IgG1, kappa)
heavy 1: not shown
heavy 2: not shown
light: B1 light
notes: also called He Ab L328_02A
B20: GpH7-A5/GpH7-B3 variant L328_10E/GpL16-k0 (antibody, human IgG1, kappa)
heavy 1: not shown
heavy 2: not shown
light: B1 light
notes: also called He Ab L328_10E
B21: GpH7-A5/GpH7-B3 variant I332_02A/GpL16-k0 (antibody, human IgG1, kappa)
heavy 1: not shown
heavy 2: not shown
light: B1 light
notes: also called He Ab I332_02A
B22: GpH7-A5/GpH7-B3 variant N325_06M/GpL16-k0 (antibody, human IgG1, kappa)
heavy 1: not shown
heavy 2: not shown
light: B1 light
notes: also called He Ab N325_06M
B23: GpH7-A5/GpH7-B3 variant N325_01G/GpL16-k0 (antibody, human IgG1, kappa)
heavy 1: not shown
heavy 2: not shown
light: B1 light
notes: also called He Ab N325_01G
B24: GpH7-A5/GpH7-B3 variant P238_06M/GpL16-k0 (antibody, human IgG1, kappa)
heavy 1: not shown
heavy 2: not shown
light: B1 light
notes: also called He Ab P238_06M
B25: GpH7-A5/GpH7-B3 variant G237_18N/GpL16-k0 (antibody, human IgG1, kappa)
heavy 1: not shown
heavy 2: not shown
light: B1 light
notes: also called He Ab G237_18N
B26: GpH7-A5/GpH7-B3 variant G237_06M/GpL16-k0 (antibody, human IgG1, kappa)
heavy 1: not shown
heavy 2: not shown
light: B1 light
notes: also called He Ab G237_06M
B27: GpH7-A5/GpH7-B3 variant P271_09D/GpL16-k0 (antibody, human IgG1, kappa)
heavy 1: not shown
heavy 2: not shown
light: B1 light
notes: also called He Ab P271_09D

This test has as its target T1, FcγRIIb extracellular domain with …. Kind of test: SPR (Biacore), relative binding.
For B1, the He/Con_2b was 124 % of HeCon Ab GpH7-A5/GpH7-B3/GpL16-k0.

For B2, the He/Con_2b was 232 % of HeCon Ab GpH7-A5/GpH7-B3/GpL16-k0.

Consider B3, for which the He/Con_2b is 101 % of HeCon Ab GpH7-A5/GpH7-B3/GpL16-k0. The figure for B4 is 149 % of HeCon Ab GpH7-A5/GpH7-B3/GpL16-k0. Consider B5, for which the He/Con_2b is 118 % of HeCon Ab GpH7-A5/GpH7-B3/GpL16-k0. The figure for B6 is 150 % of HeCon Ab GpH7-A5/GpH7-B3/GpL16-k0.

Consider B7, for which the He/Con_2b is 171 % of HeCon Ab GpH7-A5/GpH7-B3/GpL16-k0.

For B8, the He/Con_2b was 199 % of HeCon Ab GpH7-A5/GpH7-B3/GpL16-k0. The figure for B9 is 111 % of HeCon Ab GpH7-A5/GpH7-B3/GpL16-k0; for B10 it is 199 % of HeCon Ab GpH7-A5/GpH7-B3/GpL16-k0. With B11, the He/Con_2b was 110 % of HeCon Ab GpH7-A5/GpH7-B3/GpL16-k0.

For the molecule B12, the He/Con_2b is 143 % of HeCon Ab GpH7-A5/GpH7-B3/GpL16-k0. The figure for B13 is 115 % of HeCon Ab GpH7-A5/GpH7-B3/GpL16-k0.

On to B14, for which the He/Con_2b was 106 % of HeCon Ab GpH7-A5/GpH7-B3/GpL16-k0.

Take B15: the He/Con_2b is 113 % of HeCon Ab GpH7-A5/GpH7-B3/GpL16-k0. The figure for B16 is 177 % of HeCon Ab GpH7-A5/GpH7-B3/GpL16-k0. Turning to B17, the He/Con_2b is 127 % of HeCon Ab GpH7-A5/GpH7-B3/GpL16-k0. The figure for B18 is 137 % of HeCon Ab GpH7-A5/GpH7-B3/GpL16-k0; for B19 it is 144 % of HeCon Ab GpH7-A5/GpH7-B3/GpL16-k0; for B20 it is 172 % of HeCon Ab GpH7-A5/GpH7-B3/GpL16-k0. The figure for B21 is 103 % of HeCon Ab GpH7-A5/GpH7-B3/GpL16-k0. For B22, the He/Con_2b is 217 % of HeCon Ab GpH7-A5/GpH7-B3/GpL16-k0. The figure for B23 is 101 % of HeCon Ab GpH7-A5/GpH7-B3/GpL16-k0. The figure for B24 is 174 % of HeCon Ab GpH7-A5/GpH7-B3/GpL16-k0. Turning to B25, the He/Con_2b is 180 % of HeCon Ab GpH7-A5/GpH7-B3/GpL16-k0. The figure for B26 is 130 % of HeCon Ab GpH7-A5/GpH7-B3/GpL16-k0.

Take B27: the He/Con_2b is 120 % of HeCon Ab GpH7-A5/GpH7-B3/GpL16-k0.

For the origin of these results see patent publication US20150344570A1 (published 2015).
